Measured values: patent US20220073643A1 (NANJING GENSCRIPT BIOTECH, published 2022)
“And” between values parts separate entries of the source, which are not always exact repeats. Equal entries are not always repeated.

B1: 207F8G5 (antibody, V domains shown)
VH: QAYLQQSGAELVRSGASVKMSCKASGFTFTSYNIHWVKQTPGQGLEWIGYISPGNGGSNYNLKFKDKATLTSATSSSTAYMQISSLTSEDSAVYFCATGRGFAYWGQGTLVTVSA
VL: DIVMTQSPSSLTVTPGEKVTMSCKSSQSLFNSGNQKNYLIWYQQKPGQPPKLLIYRASTRDSGVPDRFTGSGSGTDFTLTISNVQAEDLAIYYCQNDYSYPLTFGAGTKLELK
notes: mouse hybridoma mAb
B2: 217D9G2 (antibody, V domains shown)
VH: QAYLQQSGAELVRSGASVKMSCKASGFTFTSYNIHWVKQTPGQGLEWIGYISPGNGGSNYNLNFKDKATLTAATSSTTAYMQISSLTSEDSAVYFCATGRGFAYWGQGTLVTVSA
VL: DIVMTQSPSSLTVTPGEKVTMSCRSSQSLFNSGNQKNYLIWYQQKPGQPPKLLIYRASTRDSGVPDRFTGSGSGTDFTLTISNVQAEDLAVYYCQNDYSYPLTFGAGTKLELK
notes: mouse hybridoma mAb
B3: 222B6G5 (antibody, V domains shown)
VH: QTYLQQSGAELVRSGASVKMSCKASGYTFTSYNIHWVKQTPGQGLEWIGYISPGNGGTYYNLKFKDKATLTTATSSSTAYMQISSLTSEDSAVYFCATGRGFAYWGQGTLVTVSA
VL: DIVMTQSPSSLTVTPGEKVTMSCKSSQSLFNSGNQKNYLIWYQQKPGQPPKLLIYRASTRDSGVPDRFTGSGSGTDFTLTISNVQAEDLAVYYCQNDYSYPLTFGAGTKLELK
notes: mouse hybridoma mAb; also called 222B6G5-2
B4: 280F3B6 (antibody, V domains shown)
VH: QAYLQQSGAELVRSGASVKMSCKASGYTFTSHNMHWVKQTPGQGLEWIGYIYPGNGGTNYNQKFKGKATLTADTSSSTAYMQISSLTSEDSAVYFCTRDYYGNSFAYWGQGTLVTVSA
VL: DIVMTQSPSSLTEKAGERVSMSCKSSQSLFNSGNQKNYLTWYQQKPGQPPKLLIYWASTRESGVPDRFTGSGSGTDFTLTISSVQAEDLAVYYCQNDYWYPFTFGAGTKLELK
notes: mouse hybridoma mAb
B5: 231H4G11 (antibody, V domains shown)
VH: QAYLQQSGAELVRSGASVKMSCKASGYTFTSHNIHWVKQTPGQGLEWIGYISPGNGYTNYNQKFRGKATLTADTSSSTAYMQISSLTSEDSAVYFCTRDYYGNSFAYWGQGTLVTVSA
VL: DIVMTQSPSSLTEKAGERVSMSCKSSQSLFNSGSQKNYLTWYQQKPGQPPKLLIYWASTRESGVPDRFSGSGSGTDFTLTISSVQAEDLAVYYCQNNYWFPFTFGAGTKLELK
notes: mouse hybridoma mAb
B6: 232D7C8 (antibody, V domains shown)
VH: QAYLQQSGAELVRSGASVKMSCKASGYTFTSHNMHWVKQTPGQGLEWIGYIYPGNGGTNYNQKFKGKATLTADTSSSTAYMQISSLTSEDSAVYFCARDYFGNSFAYWGQGTLVTVSA
VL: DILMTQSPSSLTATAGEKVSMSCKSSQSLFNSGNQRNYLTWYQQRPGQPPKLLIYWASTRESGVPDRFTGSGSGTDFTLTISSVQAEDLAVYYCQNDYRYPFTFGAGTKLELK
notes: mouse hybridoma mAb
B7: 233D5E5 (antibody, V domains shown)
VH: QAYLQQSGAELVRSGASVKMSCKASGYTFTSHNMHWVKQTPRQGLEWIGYIYPGNGDTNYNQKFKGKATLTADTSSSTAYMQISSLTSEDSAVYFCTRDYYGNSFAYWGQGTLVTVSA
VL: DIVMTQSPSSLTEKAGERVSMSCKSSQSLFNSGNQKNYLTWYQQKPGQPPKLLIYWASTRESGVPDRFTGSGSGTDFTLTISSVQAEDLAVYYCQNAYWYPFTFGAGTKLELK
notes: mouse hybridoma mAb
B8: 234C9G5 (antibody, V domains shown)
VH: QAYLQQSGAELVRSGASVKMSCKASGYAFTSHNMHWVKQTPGQGLEWIGYISPGNGYTNYNQKFRGKATLTADTSSSTAYMQIGSLTSEDSAVYFCTRDYYGNSFAYWGQGTLVTVSA
VL: DIVMTQSPSSLTEKAGERVSMSCKSSQSLFNSGNQKNYLTWYQQKPGQPPKLLIYWASTRESGVPDRFTGSGSGTDFTLTISSVQAEDLAVYYCQNNYWFPFTFGAGTKLELK
notes: mouse hybridoma mAb
B9: 234E1F12 (antibody, V domains shown)
VH: QAYLQQSGAELVRSGASVKMSCKASGYTFTSHNMHWVKQTPRQGLEWIGYIYPGNGDTNYNQKFKGKATLTADTSSSTAYMQISSLTSEDSAVYFCTRDYYGNSFAYWGQGTLVTVSA
VL: DIVMTQSPSSLTEKAGERVSMSCKSSQSLFNSGNQKNYLTWYQQKPGQPPKLLIYWASTRESGVPDRFTGSGSGTDFTLTISSVQAEDLAVYYCQNAYWYPFTFGAGTKLELK
notes: mouse hybridoma mAb
B10: 235A10C9 (antibody, V domains shown)
VH: QAYLQQSGAELVRSGASVKMSCKASGYTFASHNMHWVKQTPGQGLEWIGYIYPGNSGTKYNQKFTGKATLTADTSSSTAYMQITSLTSEDSAVYFCARDYYGNSFAYWGQGTLVTVSA
VL: DIVMTQSPSSLTEKAGEKVSMRCKSSQSLLNSGNQKNYLTWYQQKPGQPPKLLIYWASTRESGVPDRFTGSGSGTDFTLTISSVQADDLAVYYCQNDYMFPFTFGAGTKLELK
notes: mouse hybridoma mAb
B11: 239H12G9 (antibody, V domains shown)
VH: QAYLQQSGAELVRSGASVKMSCKASGYTFTSHNIHWVKQTPGQGLEWIGYIYPGNGAPNYNQKFRGKATLTADTSSSTAYMQISSLTSEDSAVYFCARDYYGNSFVYWGQGTLVTVSA
VL: DIVMTQSPSSLTEKAGEKVSMSCKSSQSLLNSGNQKNYLTWYQQKPGQPPKLLIYWASTRESGVPDRFTGSGSGTDFTLTISSVQAEDLAVYYCQNDYRYPFTFGAGTKLELK
notes: mouse hybridoma mAb
B12: 240D6F5 (antibody, V domains shown)
VH: QAYLQQSGAELVRSGASVKMSCKASGYTFTSHNMHWVKQTPGQGLEWIGYIYPGNGGTNYNQKFKGKATLTADPSSSTAYMQINSLTSEDSAVYFCTRDYYGNSFAYWGQGTLVTVSA
VL: DIVMTQSPSSLTEKAGERVSMSCKSSQSLFNSGNQKNYLTWYQQKPGQPPKLLIYWASTRESGVPDRFTGSGSGTDFTLTISSVQAEDLAVYYCQNDYRYPFTFGAGTKLELK
notes: mouse hybridoma mAb
B13: 242H12D6 (antibody, V domains shown)
VH: QAYLQQSGAELVRSGASVKMSCKASGYTFTSHNMHWVKQTPGQGLEWIGYIYPGNGGTNYNQKFKGKATLTADTSSSTAYMQINSLTSEDSAVYFCTRDYYGNSFAYWGQGTLVTVSA
VL: DIVMTQSPSSLTEKAGERVSMSCKSSQSLFNSGNQKNYLTWYQQKPGQPPKLLIYWASTRESGVPDRFTGSGSGTDFTLTISSVQAEDLAVYYCQNDYRYPFTFGAGTKLELK
notes: mouse hybridoma mAb
B14: 243B4F2 (antibody, V domains shown)
VH: QAYLQQSGAELVRSGASVKMSCKASGYTFTSHNLHWVKQTPGQGLEWIGYIYPGNGNTNYNQKFKGKATLTADTSSSTAYMQISSLTSEDSAVYFCTRDYYGNSFAYWGQGTLVTVSA
VL: DIVMTQSPSSLTEKAGERVSMSCKSSQSLFNSGNQKNYLTWYQQKPGQPPKLLIYWASTRESGVPDRFTGSGSGTDFTLTISSVQAEDLAVYYCQNNYWFPFTFGAGTKLELK
notes: mouse hybridoma mAb
B15: 243B4F7 (antibody, V domains shown)
VH: QAYLQQSGAELVRSGASVKMSCKASGYTFTSHNLHWVKQTPGQGLEWIGYIYPGNGNTNYNQKFKGKATLTADTSSSTAYMQISSLTSEDSAVYFCTRDYYGNSFAYWGQGTLVTVSA
VL: DIVMTQSPSSLTEKAGERVSMSCKSSQSLFNSGNQKNYLTWYQQKPGQPPKLLIYWASTRESGVPDRFTGSGSGTDFTLTISSVQAEDLAVYYCQNNYWFPFTFGAGTKLELK
notes: mouse hybridoma mAb
B16: 243F6D2 (antibody, V domains shown)
VH: QAYLQQSGAELVRSGASVKMSCRASGYTFTSHNMHWVKQTPGQGLEWIGYIYPGNGGTYYNQKFKGKATLTADTSSSTAYMQISSLTSEDSAVYFCARDYYGNSFVYWGQGTLVTVSA
VL: DVVMTQSPSSLTEKTGEKVSMSCKSSQSLLNSGNQKNYLTWYQQKPGQPPKLLIYWASTRESGVPDRFTGSGSGTDFTLTISSLQTEDLAVYYCQNNYRYPFTFGAGTKLELK
notes: mouse hybridoma mAb
B17: 244A1B8 (antibody, V domains shown)
VH: QAYLQQSGAELVRSGASVKMSCKASGYTFTSHNIHWVKQTPGQGLEWIGYIYPGNGAPNYNQKFRGKATLTADTSSSTAYMQISSLTSEDSAVYFCARDYYGNSFVYWGQGTLVTVSA
VL: DIVMTQSPSSLTEKAGEKVSMSCKSSQSLLNSGNQKNYLTWYQQKPGQPPKLLIYWASTRESGVPDRFTGSGSGTDFTLTISSVQAEDLAVYYCQNDYRYPFTFGAGTKLELK
notes: mouse hybridoma mAb
B18: 250F4G1 (antibody, V domains shown)
VH: QAYLQQSGAELVRSGASVKMSCKASGYTFTSHNMHWVKQTPGQGLEWIGYIYPGNGRTNYNQKFKGKATLTADTSSSTAYMQISSLTSEDSAVYFCTRDYYGNSFAYWGQGTLVTVSA
VL: DIVMTQSPSSLTEKVGERVSMSCKSSQSLFNSGNQKNYLTWYQQKPGQPPKLLIYWASTRESGVPDRFTGSGSGTDFTLTISSVQAEDLAVYYCQNDYWYPFTFGAGTKLELK
notes: mouse hybridoma mAb
B19: 250F4G4 (antibody, V domains shown)
VH: QAYLQQSGAELVRSGASVKMSCKASGYTFTSHNMHWVKQTPGQGLEWIGYIYPGNGRTNYNQKFKGKATLTADTSSSTAYMQISSLTSEDSAVYFCTRDYYGNSFAYWGQGTLVTVSA
VL: DIVMTQSPSSLTEKVGERVSMSCKSSQSLFNSGNQKNYLTWYQQKPGQPPKLLIYWASTRESGVPDRFTGSGSGTDFTLTISSVQAEDLAVYYCQNDYWYPFTFGAGTKLELK
notes: mouse hybridoma mAb
B20: 252F1B10 (antibody, V domains shown)
VH: QAYLQQSGAELVRSGASVKMSCKASGYTFTSHNMHWVKQTPGQGLEWIGYIYPGNGGTNYNQKFKGKATLTADTSSSTAYMQINSLTSEDSAVYFCTRDYYGNSFAYWGQGTLVTVSA
VL: DIVMTQSPSSLTEKAGERVSMSCKSSQSLFNSGNQKNYLTWYQQKPGQPPKLLIYWASTRESGVPDRFTGSGSGTDFTLTISSVQAEDLAVYYCQNDYRYPFTFGAGTKLELK
notes: mouse hybridoma mAb
B21: 256C3D3 (antibody, V domains shown)
VH: QAYLQQSGAELVRSGASVKMSCKASGYAFTSHNMHWVKQTPGQGLEWIGYISPGNGYTNYNQKFRGKATLTADTSSSTAYMQIGSLTSEDSAVYFCTRDYYGNSFAYWGQGTLVTVSA
VL: DIVMTQSPSSLTEKAGERVSMSCKSSQSLFNSGNQKNYLTWYQQKPGQPPKLLIYWASTRESGVPDRFTGSGSGTDFTLTISSVQAEDLAVYYCQNNYWFPFTFGAGTKLELK
notes: mouse hybridoma mAb

Biological target: T1, human Claudin18.2 (human)
T1 construct: also called CLDN18.2
Assay: cell ELISA, Claudin18.2-expressing HEK293T cells
Method: To determine protein binding EC₅₀ by Cell ELISA, 96-well U-bottom microplates were pre-blocked with blocking buffer (5% MPBS, 1×PBS with 5% skim milk) overnight at 4° C. On the next day, the Claudin18.2-expressing HEK293T stable cell line was suspended at 1.5×10⁶ cells/ml in blocking buffer, added to the plate in 100 μl/well and incubated at room temperature for 1 hour.
Raw data were plotted with GraphPad Prism v6.02 software with four parameters, best-fit value program to analyze the EC₅₀.

B1 and B2 are within 1.5-fold of each other in EC50: 0.822 nM for the first, 0.908 nM for the second.

Compared with B4, B5 is 1.7-fold higher in EC50: 0.582 nM for the first, 1.01 nM for the second.

B6 and B7 are within 1.5-fold of each other in EC50: 0.738 nM for the first, 0.803 nM for the second.

B8 and B9 are within 1.5-fold of each other in EC50: 0.562 nM for the first, 0.57 nM for the second.

B10 and B11 are within 1.5-fold of each other in EC50: 0.63 nM for the first, 0.732 nM for the second.

First: B12
Second: B13
The EC50 of the first is 2.4-fold higher: 1.77 nM for the first, 0.744 nM for the second.

First: B14
Second: B15
The EC50 of the first is 1.7-fold higher: 0.684 nM for the first, roughly 0.411 nM for the second. The second is the more potent here.

Compared with B16, B17 is 2.2-fold lower in EC50: 0.96 nM for the first, roughly 0.439 nM for the second.

First: B18
Second: B19
The EC50 of the first is 2.1-fold higher: 0.415 nM for the first, 0.199 nM for the second. The second is the more potent here.

B20 and B21 are within 1.5-fold of each other in EC50: 0.53 nM for the first, 0.729 nM for the second.

With B3 the EC50 was 1.13 nM and 1.38 nM.
